Experimental data as given in CN111234026A (BEIJING CHEST HOSPITAL CAPITAL MEDICAL UNIV; BEIJING …, dated 2020).
Changes are numbered by the printed parent chain.

T1: 结核分枝杆菌特异性重组蛋白MPT32 (Mycobacterium tuberculosis, UniProt P9WIR7 40-325)
T1 sequence (looked up): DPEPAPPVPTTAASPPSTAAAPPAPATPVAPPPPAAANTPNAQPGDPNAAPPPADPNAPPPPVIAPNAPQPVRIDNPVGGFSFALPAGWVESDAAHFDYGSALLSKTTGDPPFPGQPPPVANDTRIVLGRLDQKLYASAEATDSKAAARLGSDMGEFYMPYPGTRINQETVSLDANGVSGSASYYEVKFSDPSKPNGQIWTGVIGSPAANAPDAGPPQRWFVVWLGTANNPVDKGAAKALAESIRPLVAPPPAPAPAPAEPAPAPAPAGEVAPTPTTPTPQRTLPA

T2: 结核分枝杆菌特异性重组蛋白CFP10 (Mycobacterium tuberculosis, UniProt P9WNK5 1-100)
T2 sequence (looked up): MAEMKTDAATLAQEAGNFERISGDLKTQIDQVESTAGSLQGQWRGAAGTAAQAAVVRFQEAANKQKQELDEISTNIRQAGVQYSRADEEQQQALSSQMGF

T3: 结核分枝杆菌特异性重组蛋白38KD (Mycobacterium tuberculosis, UniProt P9WGU1 24-374)
T3 sequence (looked up): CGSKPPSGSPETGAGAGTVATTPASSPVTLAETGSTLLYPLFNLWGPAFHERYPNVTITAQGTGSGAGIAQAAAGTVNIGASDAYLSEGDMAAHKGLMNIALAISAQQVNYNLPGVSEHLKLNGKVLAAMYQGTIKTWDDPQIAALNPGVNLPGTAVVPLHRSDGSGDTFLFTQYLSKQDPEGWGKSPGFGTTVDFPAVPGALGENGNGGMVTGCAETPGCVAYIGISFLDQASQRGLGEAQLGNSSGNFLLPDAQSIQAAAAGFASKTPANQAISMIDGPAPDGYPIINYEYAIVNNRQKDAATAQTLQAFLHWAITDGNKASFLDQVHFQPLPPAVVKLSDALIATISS

T4: 结核分枝杆菌特异性重组蛋白EspC (Mycobacterium tuberculosis, UniProt P9WJD7 1-103)
T4 sequence (looked up): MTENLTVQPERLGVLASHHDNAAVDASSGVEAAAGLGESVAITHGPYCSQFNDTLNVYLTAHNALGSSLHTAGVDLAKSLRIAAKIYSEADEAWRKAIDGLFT

T5: 结核分枝杆菌特异性重组蛋白MPT64 (Mycobacterium tuberculosis, UniProt P9WIN9 24-228)
T5 sequence (looked up): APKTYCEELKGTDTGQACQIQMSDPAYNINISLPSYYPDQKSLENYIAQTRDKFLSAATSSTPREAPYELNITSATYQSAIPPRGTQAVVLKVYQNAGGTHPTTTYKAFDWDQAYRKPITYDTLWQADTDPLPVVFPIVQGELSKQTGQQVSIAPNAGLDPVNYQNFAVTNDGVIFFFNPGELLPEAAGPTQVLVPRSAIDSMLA

B1: BJRbL76 (antibody, V domains shown)
VH: QSVEESGGRLVTPGTPLTLTCTVSGFSLSTYAITWVRQAPGKGLEWIGYIWGGGNTDYASWAKGRFTISKTSTTVDLKITSPTIEDTATYFCGRNDLGYGSDIWGPGTLVTVSS
VL: DVVMTQTPSSKSVPVGDTVTINCQASQSVWGNKWLSWYQQKPGQPPKLLIYQASKLASGVPSRFSGSGSGTQFTLTISDVVCDDAATYYCGGHGTGNNDNPLGGGTMVEIKG
notes: also called 兔抗LAM单克隆抗体BJRbL76; LAM抗体
B2: BJRbL20 (antibody, V domains shown)
VH: QSVEESGGRLVTPGGSLTLTCTVSGIDLSSYDMGWVRQAPGKGLEWIGNIWSNGFTDYASWVNGRFTISKSSSTKMDLKMTSLTTEDTATYFCARGSSGYVGDIWGPGTLVTVSS
VL: DPVLTQTASSVSAAVGGTVTINCQASQSVYGNNELSWFQQKPGQPPKLLIYYASTLASGVPSRFKGSGSGTQFTLTISDLECDDAAIYYCQGGYLGNRAFGGGTEVVVKG
notes: also called 兔抗LAM单克隆抗体BJRbL20; LAM抗体
B3: BJRbL52 (antibody, V domains shown)
VH: B2 VH with G15T, I26F, D27S
VL: B2 VL with F38Y, P42S, Y52K, G66A, L95W
notes: also called 兔抗LAM单克隆抗体BJRbL52; LAM抗体

Biological target: T1, 结核分枝杆菌特异性重组蛋白MPT32
Assay: indirect ELISA, recombinant protein coated on the plate

| Binder | binding result |
| --- | --- |
| B1 | no binding (tested: protein coated at 5μg/ml) |
| B2 | no binding (tested: protein coated at 5μg/ml) |
| B3 | no binding (tested: protein coated at 5μg/ml) |

Biological target: 结核分枝杆菌特异性重组蛋白Mtb81 (Mycobacterium tuberculosis, UniProt P9WK17 1-741)
Assay: as above

Sequence of 结核分枝杆菌特异性重组蛋白Mtb81 (P9WK17 whole entry): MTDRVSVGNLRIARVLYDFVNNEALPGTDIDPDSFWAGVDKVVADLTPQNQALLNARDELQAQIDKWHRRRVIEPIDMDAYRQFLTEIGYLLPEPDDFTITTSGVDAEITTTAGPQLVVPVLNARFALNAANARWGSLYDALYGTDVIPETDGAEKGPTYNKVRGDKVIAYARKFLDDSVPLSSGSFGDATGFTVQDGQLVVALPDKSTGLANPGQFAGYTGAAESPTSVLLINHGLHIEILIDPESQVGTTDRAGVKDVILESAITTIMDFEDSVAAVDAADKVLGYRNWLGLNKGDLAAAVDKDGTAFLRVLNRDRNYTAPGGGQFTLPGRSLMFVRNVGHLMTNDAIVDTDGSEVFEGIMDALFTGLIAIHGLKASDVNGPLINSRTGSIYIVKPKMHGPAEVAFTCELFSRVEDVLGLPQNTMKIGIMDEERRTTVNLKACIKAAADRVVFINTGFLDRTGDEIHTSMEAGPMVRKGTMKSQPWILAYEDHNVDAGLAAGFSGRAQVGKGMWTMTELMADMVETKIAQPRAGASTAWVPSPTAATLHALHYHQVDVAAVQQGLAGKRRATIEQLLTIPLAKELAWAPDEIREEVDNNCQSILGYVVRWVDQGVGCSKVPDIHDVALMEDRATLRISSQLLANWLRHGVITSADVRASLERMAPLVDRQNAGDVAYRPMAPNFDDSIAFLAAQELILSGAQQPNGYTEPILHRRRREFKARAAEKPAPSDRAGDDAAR

| Binder | binding result |
| --- | --- |
| B1 | no binding (tested: protein coated at 5μg/ml) |
| B2 | no binding (tested: protein coated at 5μg/ml) |
| B3 | no binding (tested: protein coated at 5μg/ml) |

Biological target: T2, 结核分枝杆菌特异性重组蛋白CFP10
Assay: as above

| Binder | binding result |
| --- | --- |
| B1 | no binding (tested: protein coated at 5μg/ml) |
| B2 | no binding (tested: protein coated at 5μg/ml) |
| B3 | no binding (tested: protein coated at 5μg/ml) |

Biological target: T3, 结核分枝杆菌特异性重组蛋白38KD
Assay: as above

| Binder | binding result |
| --- | --- |
| B1 | no binding (tested: protein coated at 5μg/ml) |
| B2 | no binding (tested: protein coated at 5μg/ml) |
| B3 | no binding (tested: protein coated at 5μg/ml) |

Biological target: T4, 结核分枝杆菌特异性重组蛋白EspC
Assay: as above

| Binder | binding result |
| --- | --- |
| B1 | no binding (tested: protein coated at 5μg/ml) |
| B2 | no binding (tested: protein coated at 5μg/ml) |
| B3 | no binding (tested: protein coated at 5μg/ml) |

Biological target: T5, 结核分枝杆菌特异性重组蛋白MPT64
Assay: as above

| Binder | binding result |
| --- | --- |
| B1 | no binding (tested: protein coated at 5μg/ml) |
| B2 | no binding (tested: protein coated at 5μg/ml) |
| B3 | no binding (tested: protein coated at 5μg/ml) |
